According to paper PMC1331985 (Nucleic Acids Research, 2006):

Target: the molecule itself
Test: SEC

B1: Est3p-K71A (natural protein, S. cerevisiae, UniProt Q03096 1-181, looked up)
chain: MPKVILESHSKPTDSVFLQPWIKALIEDNSEHDQYHPSGHVIPSLTKQDLALPHMSPTILTNPCHFAKITAFYNVCDYKVYASIRDSSHQILVEFSQECVSNFERTHNCRITSETTNCLMIIGDADLVYVTNSRAMSHFKICLSNISSKEIVPVLNVNQATIFDIDQVGSLSTFPFVYKYL
B1: binds.

B2: Est3p-F72A (natural protein, S. cerevisiae, UniProt Q03096 1-181, looked up)
chain: MPKVILESHSKPTDSVFLQPWIKALIEDNSEHDQYHPSGHVIPSLTKQDLALPHMSPTILTNPCHFAKITKAYNVCDYKVYASIRDSSHQILVEFSQECVSNFERTHNCRITSETTNCLMIIGDADLVYVTNSRAMSHFKICLSNISSKEIVPVLNVNQATIFDIDQVGSLSTFPFVYKYL
B2: binds.

B3: Est3p-T115A (natural protein, S. cerevisiae, UniProt Q03096 1-181, looked up)
chain: MPKVILESHSKPTDSVFLQPWIKALIEDNSEHDQYHPSGHVIPSLTKQDLALPHMSPTILTNPCHFAKITKFYNVCDYKVYASIRDSSHQILVEFSQECVSNFERTHNCRITSEATNCLMIIGDADLVYVTNSRAMSHFKICLSNISSKEIVPVLNVNQATIFDIDQVGSLSTFPFVYKYL
B3: binds.

B4: Est3p-S87A (natural protein, S. cerevisiae, UniProt Q03096 1-181, looked up)
chain: MPKVILESHSKPTDSVFLQPWIKALIEDNSEHDQYHPSGHVIPSLTKQDLALPHMSPTILTNPCHFAKITKFYNVCDYKVYASIRDASHQILVEFSQECVSNFERTHNCRITSETTNCLMIIGDADLVYVTNSRAMSHFKICLSNISSKEIVPVLNVNQATIFDIDQVGSLSTFPFVYKYL
B4: binds.

B5: Est3p-E104A (natural protein, S. cerevisiae, UniProt Q03096 1-181, looked up)
chain: MPKVILESHSKPTDSVFLQPWIKALIEDNSEHDQYHPSGHVIPSLTKQDLALPHMSPTILTNPCHFAKITKFYNVCDYKVYASIRDSSHQILVEFSQECVSNFARTHNCRITSETTNCLMIIGDADLVYVTNSRAMSHFKICLSNISSKEIVPVLNVNQATIFDIDQVGSLSTFPFVYKYL
B5: binds.

B6: Est3p-K3A (natural protein, S. cerevisiae, UniProt Q03096 1-181, looked up)
chain: MPAVILESHSKPTDSVFLQPWIKALIEDNSEHDQYHPSGHVIPSLTKQDLALPHMSPTILTNPCHFAKITKFYNVCDYKVYASIRDSSHQILVEFSQECVSNFERTHNCRITSETTNCLMIIGDADLVYVTNSRAMSHFKICLSNISSKEIVPVLNVNQATIFDIDQVGSLSTFPFVYKYL
B6: binds.
